The record followed here is PMC6338969, “Aptamer Conformation Switching-Induced Two-Stage Amplification for Fluorescent Detection of Proteins”.

The target in series [1] is prostate-specific antigen (PSA) (UniProt P07288 25-261). The experiment in a line: molecular beacon fluorescence with amplification; 0.1 mg/mL PSA; Aptamer + protein 15 min at 37 °C, then NEB buffer (pH 7.9) with Klenow exo- buffer, 37 °C, 2 h; 1 uM aptamer, 1 uM beacon, 2.5 uM primer, 2 mM dNTPs, Klenow exo- and Nt.BbvCI 1 U/uL each; salt not stated. Conditions: protein: commercial; Y-shaped complex with target.

Series [2] has as its target carcino-embryonic antigen (CEA) (UniProt P06731 35-685). The series can be described thus: molecular beacon fluorescence with amplification; 0.1 mg/mL CEA; Aptamer + protein 15 min at 37 °C, then NEB buffer (pH 7.9) with Klenow exo- buffer, 37 °C, 2 h; 1 uM aptamer, 1 uM beacon, 2.5 uM primer, 2 mM dNTPs, Klenow exo- and Nt.BbvCI 1 U/uL each; salt not stated. The note with it: protein: commercial; Y-shaped complex with target.

In another series the target is PDGF-BB (UniProt P01127 82-190). The series can be described thus: molecular beacon fluorescence with amplification; 1.0 ug/mL PDGF-BB; Aptamer + protein 15 min at 37 °C, then NEB buffer (pH 7.9) with Klenow exo- buffer, 37 °C, 2 h; 1 uM aptamer, 1 uM beacon, 2.5 uM primer, 2 mM dNTPs, Klenow exo- and Nt.BbvCI 1 U/uL each; salt not stated. Conditions: protein: commercial; chain copies: 2.
Sequence of PDGF-BB (P01127 82-190): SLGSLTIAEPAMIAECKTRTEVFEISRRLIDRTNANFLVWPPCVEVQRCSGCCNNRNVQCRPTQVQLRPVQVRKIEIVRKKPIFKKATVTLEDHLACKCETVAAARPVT

Sequence of carcino-embryonic antigen (CEA) (P06731 35-685): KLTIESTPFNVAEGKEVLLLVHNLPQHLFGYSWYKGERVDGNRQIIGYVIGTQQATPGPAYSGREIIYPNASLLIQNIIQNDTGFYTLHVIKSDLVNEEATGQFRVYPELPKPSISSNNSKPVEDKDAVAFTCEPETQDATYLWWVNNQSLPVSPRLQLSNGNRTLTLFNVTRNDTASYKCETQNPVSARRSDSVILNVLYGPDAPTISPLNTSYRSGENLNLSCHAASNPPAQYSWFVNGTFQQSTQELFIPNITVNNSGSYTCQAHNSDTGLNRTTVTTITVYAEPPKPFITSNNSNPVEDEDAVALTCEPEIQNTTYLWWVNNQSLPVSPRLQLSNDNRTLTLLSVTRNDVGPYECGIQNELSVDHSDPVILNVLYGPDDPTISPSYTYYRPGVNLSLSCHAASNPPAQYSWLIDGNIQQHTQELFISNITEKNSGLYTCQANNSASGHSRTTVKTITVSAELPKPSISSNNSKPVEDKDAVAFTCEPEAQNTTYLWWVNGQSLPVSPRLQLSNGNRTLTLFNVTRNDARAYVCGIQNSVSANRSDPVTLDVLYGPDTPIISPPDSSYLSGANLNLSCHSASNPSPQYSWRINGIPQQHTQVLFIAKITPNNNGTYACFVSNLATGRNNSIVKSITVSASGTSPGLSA
Sequence of prostate-specific antigen (PSA) (P07288 25-261): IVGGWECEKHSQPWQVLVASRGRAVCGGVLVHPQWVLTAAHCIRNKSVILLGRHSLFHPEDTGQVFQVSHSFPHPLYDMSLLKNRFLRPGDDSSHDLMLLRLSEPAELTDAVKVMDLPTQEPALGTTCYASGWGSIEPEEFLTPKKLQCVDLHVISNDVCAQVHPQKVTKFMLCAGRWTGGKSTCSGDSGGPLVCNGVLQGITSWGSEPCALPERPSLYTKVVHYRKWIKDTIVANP

B1: PDGF-BB DNA aptamer (switch) (structured_DNA)
DNA: TGCACCTCAGCAGCAGGCTACGGCACGTAGAGCATCACCATGATCCTGCATCCGAGCAGGAACG
For B1, the binding result in series [1] and in series [2] was “no binding” throughout.

B2: Control DNA aptamer (ssDNA)
DNA: TGCACCTCAGCATTTCCGTGGTAGGGCAGGTTGGGGTGATTTCTATTCAATCCGAGCAGGAACG
B2: the binding result in the series with PDGF-BB is recorded as “no binding”.
